# Data published in the nanobody polyreactivity screen of Harvey et al. (2022).
# Assay: yeast display, Sf9 membrane polyspecificity reagent, FACS + sequencing; frameworks hold sequencing errors
# How it was run: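 Polyreactivity labels are assigned by the sorting gate from which each nanobody was recovered. The gates were low and high (top ~1%), set on anti-HA fluorescence for expression and streptavidin fluorescence for reagent binding. Before sorting, galactose-induced (36–48 hours) yeast display cells were stained for 1 hour at 4 °C with 10% biotinylated, detergent-solubilized Sf9 membrane reagent.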
row,Sequence,polyreactivity (PSR sort gate)
1,QVQLVESGGGLLQAGGTLRLSCAASGFIFGRYAMGWYRQAPGKERELVADISWNGGSTYYADYVKGRFTISRDNAKNTVYLQMNSLKPEDTAVYYCAADYYWASFKYPYLRPYDYWGQGTQVTVSS,high polyreactivity
2,QVQLVESGGGLLQAGVSLRLSCAASGFIFSYNTMGWYRQPPGKEREFVAAITYSGGSTYYADSVKWRFTSSRHNAKNSVYLQMNTLKPEDTAVYYCAAPYPRGYFFGDSPKGYGGGYWGQGTQVTVSS,high polyreactivity
3,QVQLVESGGGLVEAGGRLSLSCAASGSIFHRNAMGGFRQAPGTERELVAAITYSGGGTYYADSVKGRFTISRDNAKNTVYLQMNSLKPEDTAVYYCAADYKSKYSRYIYDYWGQGPQVTVSS,low polyreactivity
4,QVQLVESGGGLVEAGGSLRLICAASGSTFGWYAMGWSRQAPGKEREFVAAISWSGTSTYYADSVKGRFTISRDNAKNTVYLQMNSLKPEDTAVYYCNARSKRANRSLGLGYWGQGTQVTVSS,low polyreactivity
5,QVQLVESGGGLVEAGGSLRLSCAASGFTFGYYAMGWYRPAPGKERELVAAITNGGRTNYAYSVKGRFTISRDNAKNTVYLQMNSLKPEDTAVYFCATDHYWSREVYWGQGTQVTVSS,low polyreactivity
6,QVQLVESGGGLVEAGGSLRLSCAASGFTFRQYAMGWYRQAPGKEWELVAAISSGGSTYYADSVKGRFTISRDNAKNTDYVQMNSLKPEDTAVYYCAATHWAYSRVPYDYWGQGTQVTVSS,high polyreactivity
7,QVQLVESGGGLVEAGGSLRLSCAASGIIFVYNAMGWSRKAPGKERELVADINWRGDGTYYSDSVKGRFTISPDNAKNTVYLQMNSLKPEDTAVYYCNAVRFRPNSHYRPVGYEYWGQGTQVTESS,low polyreactivity
8,QVQLVESGGGLVEAGGSLRLSCAASGLTFEVYAMGWYRHAPGKERELVAVITSVGSTNYADSVKGRFTISRDNAKNTVYLQMNSLKPEDTAVYYCAADKWTVRRFNPYTYYRYDYWGQGTQVTVSS,low polyreactivity
9,QVQLVESGGGLVEAGGSLRLSCAASGRIFVHNAMGWYRHAPGKERELVAVITYSGGRTYYADSVKGRFTISRDNAKNTVYLQMNSLKPEDTAVYYCAVRAYKVSRYYYWGQGTLVTVSS,low polyreactivity
10,QVQLVESGGGLVEAGGSLRLSCAASGRTFGTYPMGWYRQAPGKERELVAAISSRGGTTYYADSVKGRFTISRDNAKNTVYLQMNSLKPEDTEVYYCARASWSITTVLSTMDYWGQGTQVTVSS,high polyreactivity
11,QVQLVESGGGLVEAGGSLRLTCAASGIIFYQYAMGWYRQAPGKERELVAAISSRGGSTYYADSVKGRFTISRDNAKNTVYLQMNSLKPEDTAVYYCAAGSTRSTDGYWGQGTQVTVSS,high polyreactivity
12,QVQLVESGGGLVHAGGILRLSCAASGRIFDYNVMGWYRQAPGKERELVADINGSGGGTNYADSVKGRFTISRDNAKNTVYLQMNSLKPEDTAVYYCAAEWYSYGARSSYGGSRNDYWGHGTQVTVSS,low polyreactivity
13,QVQLVESGGGLVHAGGILRLSCAASGSTFTPNAMGWYRQAPGKEREFVAAITYSGGTTYNADSVKGRFTISRDNAKKTVYLQRNRLKPEDTAVYYCAAVYFLLYYEAYYYWGQGTQVNVSS,low polyreactivity
14,QVQLVESGGGLVHAGGPLRLSCAASGFTFGEYAMGWYRPAPGKERELVAAITWSVGSTYYADSVKGRFTISRDNAKNTVYLEMNSLKPEDTAVYYCAAVLNWSRYGYWGQGTQVTVSS,low polyreactivity
15,QVQLVESGGGLVHAGGRLRLSCAASGRIFGRNAMGWYRPPPGKERELVAAITKSGGRTYYADSVKGRFSISRVNAKNNVYFQMICLKPEDNAVYYCNRIVTFGWQYDFDFWGQGTQVTVSS,high polyreactivity
16,QVQLVESGGGLVHAGGRLRLSCAAYGITFSSYAMGWYRQAPGKERELVAAITWSGTSTYYADSVKGRFTISRDNAKNTVYLQMNSLKPEYTAVSYCADEAGAPFSISHDYWGQGTQVTVSS,low polyreactivity
17,QVQLVESGGGLVHAGGSHRLSCAASGTMGCYRQAPGKEMELVAAISQSGGSTYYADSVKGRFTISRDNAKNTVYLQMNSLKPEATAVYYCAVDPRYGHPRRDYWGQGTQVTVSS,low polyreactivity
18,QVQLVESGGGLVHAGGSIRLSCSASRRIFGYNVMGWYRQAPGKERELVAAITSGDRTYYADSVKGRFTISRDNAKHTVYLQMNSLKPEDTAVYYCAARGDRRRYGSLMDSWGQGTQVTVSS,high polyreactivity
19,QVQLVESGGGLVHAGGSLRLSCAACGRIFGPYDMGWYRQAPGKEMELVAAISWSGGNTYYADSVKGRFTISLDNAKNTVYLQMNSLKPEDTAVYYCNADYYPSSYPYDYWGQGTQVTVSS,low polyreactivity
20,QVQLVESGGGLVHAGGSLRLSCAASGFIFAYYAMGWYRQAPGKERELVAAIDSAGRTTYADSVKGRFTISRDNAKNSVYLQMNSLKPEDTAVYYCAKFTPSVYKLSLQQGYDYWGQGNQVTVSS,high polyreactivity
21,QVQLVESGGGLVHAGGSLRLSCAASGFIFKRYPMGWNRPAHGKERELVAVITRSGGSTYYADSVKGRFTISRDNAKNTVYLQMNSLKPEDTAVYYCAAQGLLKFYWGQGTQVTVSS,high polyreactivity

row,Sequence,polyreactivity (PSR sort gate)
1,QVQLVESGGGLVHAGGSLRLSCAASGFIFPGNAMGWYIQAPGKERDLVAAISNSGSRTYYADSVKGRFTISRDNAKNTVYLQMISLKPEDTAVYYCNADVHNRGWPYDYWGQGTQVTVSS,low polyreactivity
2,QVQLVESGGGLVHAGGSLRLSCAASGFIFWDYAMGWYRQAPGKERELVAAISDSGGDTYYADSVKGRFTISRDNAKNTVNLQMNRLKPEDTAVYYCAAYSPSSRFDRRGYWGQGNQVTVSS,low polyreactivity
3,QVQLVESGGGLVHAGGSLRLSCAASGFIFYGNAMGWYRQAPGKERELVAAITWSSGSTYYADSVKGRFTISRYNAKNTVYLQMNSLSPEDTAVYYSNSEWSAKRPYPSRYYFNLGYWGQGTQVTESS,high polyreactivity
4,QVQLVESGGGLVHAGGSLRLSCAASGFILYSYAMGWYRQAPGKERELVAAINSTGSTYYADSVKGRFTISRDNAKNTVYLQMNSLKPEDTAFYYCATDPWYQTDLSYDTPYYYWGQGKQVTVSS,low polyreactivity
5,QVQLVESGGGLVHAGGSLRLSCAASGFTFAGYAMGWYRQAPGKERELVAGIRSSGARTYYADSVKGRFTISRDNAKNTVYLQMNSLKPDDTAVYYCAKTDGFYGGYGYWGQCTQVTVSS,low polyreactivity
6,QVQLVESGGGLVHAGGSLRLSCAASGFTFGPYAMGWYRQAPRKERELVAAITGSGGITYYADSVKGRFTISRDNAKNTVYLQKNSLKPEDTAVYYCAAEYPYVYGTYSDSYTEYDYWGQGTQVTVSS,low polyreactivity
7,QVQLVESGGGLVHAGGSLRLSCAASGFTFRSYAMGWYRQAPGKERELVAAISWSGGSTYYADSVKGRYTISRDNAKNTVYLQMNSLKPEDTAVYYCAAVRVSKYDYWGQGTQVTVSS,high polyreactivity
8,QVQLVESGGGLVHAGGSLRLSCAASGFTIPYYAMGWYRQAPGKERELVAAIRISGGSTYYADSVKGRFTISRDNAKNTVYLQMNSLKPEDTAVYYCAADYRYRSRFYYWGQGTQVTVSS,low polyreactivity
9,QVQLVESGGGLVHAGGSLRLSCAASGGIFSWNTMGWYRQAPGKERELVAAINWSSGRTYYADSVKGRFTISRDNAKYTVYLQMNSLKPEDTAVYYCAAKYYGSRKYDYWGQGTQVTVSS,high polyreactivity
10,QVQLVESGGGLVHAGGSLRLSCAASGGIFYVNAMGWYRQAPGKERELVADIRYSGTSTYYADSVKGRFTISRDNAKNTVYLQMNSLKPEDTAVYYCAVDAWDTTHVYEQGAERDSWGQGTQVTVSS,low polyreactivity
11,QVQLVESGGGLVHAGGSLRLSCAASGIIFDDYAMGSYRQPPGKERELVAAISGRGGRTYYADSVKGRFTISRDNAKNTVYLQMNSLKPEDTAVYYCAGGGRVRYDYWGQGTQVTVSS,low polyreactivity
12,QVQLVESGGGLVHAGGSLRLSCAASGIIFGSYAMGWYRQAPGKERELVAAITRSGGRTYYADSVKGRFTISRDNAKNTVYLQMNSLKPEDTAVYYCAADRGYRGATGKYDSWGQGTEVTVSS,high polyreactivity
13,QVQLVESGGGLVHAGGSLRLSCAASGIIFPYNLMGWYRQAPGKERELVADITRGAASTYYADSVKGRFTISRVNAKNTVYFQMNRLKTEDTAVYFCNADGTWRTYNFWGQGTQVTVSS,high polyreactivity
14,QVQLVESGGGLVHAGGSLRLSCAASGIISGWNGMGWYRQAPGKERELVASIDKNGSTYYADSVKGRCTISRDNAKNTVYLQMISLKPEDTAVYYCASDVRYRGNREDYWGQGTQVNVSS,low polyreactivity
15,QVQLVESGGGLVHAGGSLRLSCAASGITFKWNDMGWYRQAPGKEREFVAAITGSTGSTFYADSVKGRFTISRDNAKNTVYLQMNSLKPEDTAVYYCAAGPWFYYWGQGTQVTVSS,low polyreactivity
16,QVQLVESGGGLVHAGGSLRLSCAASGLIFRAYAMGWYRQAPGKERELVAAITSSSGSTYYADSVKGRFTISRDIAKNTVYLEMNSLKPEDTAVSYCNAYSTFGWYDYWGQGTQVTVSS,low polyreactivity
17,QVQLVESGGGLVHAGGSLRLSCAASGRIFDGNTMGWYRQAPGKERELVAAISGGGSTDYADSVKGRFTISRDNAKNTVYLQMNSLKPEDTAVYYCAATTGPVPLKGDYWGQGTQVTVSS,low polyreactivity
18,QVQLVESGGGLVHAGGSLRLSCAASGRIFKNYVMGWYRQAPGKERELVAGISSSGGSTYYADSVKGRFTISRYNAKNTVYLQMNSLKPEDTAVYYCAADYTFAYYNFKMDYWGQVTQVTVSS,low polyreactivity
19,QVQLVESGGGLVHAGGSLRLSCAASGRIFKSYAMGWYRQAPGKEREFVAAISTRSSSTYYADSVKGRFTISRDNAKNTVYLQMNSLKPEDTAVYYCAKVYQTLPYYYPGDYWGQGTQVNVSS,low polyreactivity
20,QVQLVESGGGLVHAGGSLRLSCAASGRIFLYYVMGWYRQAPGKERELVAAITSGGSTYYADSVKGRFTISRDNAKNTVYLQMNSLKPEDTAVYYCNKVSYYRNEYWGQGTQVTVSS,high polyreactivity
